{"source": "patent US20170173114A1", "about": "“METHODS AND COMPOSITIONS FOR INDUCTION OF UCP1 EXPRESSION” (Joslin Diabetes Center, Inc., priority 2014, published 2017)", "test_system": "UCP1", "test": "UCP1 mRNA expression (Q-RT-PCR) in WT-1 brown preadipocytes", "format": "cell-based, murine", "description": "Total RNA was isolated with QIAzol lysis reagent (Qiagen, Valencia, Calif.) and purified by RNeasy Mini columns (Qiagen) following the manufacture's instructions. cDNA was prepared from total RNA using the Advantage RT-PCR kit (BD Biosciences, Palo Alto, Calif.) according to manufacturer's instructions. Diluted cDNA was used in a PCR reaction with SYBR Green Master Mix (Applied Biosystems, Foster City, Calif.) and primers specifically designed for detection of the gene of interest. PCR reactions were run in duplicate for each sample and quantitated in the ABI Sequence Detection System (Applied Biosystems). Data were expressed as arbitrary units after normalization to levels of expression of internal controls for each sample. Sequences of primers for specific genes are each obtained from the published literature or designed using publically available gene sequence databases. Unless otherwise indicated, gene expression data described in the examples below was obtained using QPCR.\nThe effect of FGF6 on differentiation of WT-1 murine brown preadipocytes was also examined. WT-1 cells can be induced to undergo brown adipocyte differentiation, characterized by lipid accumulation and expression of adipogenic and brown fat markers, as described above (Klein et al. (1999) J Biol Chem 274:34795; Tseng et al. (2005) Nat Cell Biol 7:601). WT-1 cells were treated with FGF6 in growth media (DMEM+10% FBS), a vehicle control (“control” or “C” referred to in FIGS. 3A-D), or induction media (“induction” or “I” referred to in FIGS. 3A-D) as described above for seven days. Following the treatment, cells were examined for the color of the culture media in combination with oil Red O staining, expression of adipogenic markers, expression of brown fat markers, immunofluorescent staining of cells with UCP1 and DPAI, and Western blot analysis to determine the presence of UCP1 and β-tubulin. The results are described in FIGS. 3A to 3D.\nUCP1 mRNA expression in brown adipocyte cells was determined at FGF6 concentrations ranging from 0 to 300 ng/ml in the absence of induction cocktail.\nIn order to determine the length of time necessary to induce UCP1 expression upon exposure to of cells to FGF6, an experiment was performed whereby FGF6 was administered to brown preadipocytes at a concentration of 200 ng/ml and UCP1 expression was determined. FGF21 and a control were also used in the time course experiment. FGF21, a member of the endocrine FGF ligands that has been implicated in the browning of white fat (Fisher F. M. et al., Genes Dev. 26:271-281, 2012). […] FGF6 could acutely induce a significant increase of UCP1 expression as early as 4 hours after a 200 ng/ml dose, as described in FIG. 4B. At 24 hours, the fold-induction of UCP1 mRNA by FGF6 reached 700-fold higher than the untreated cells, as described in FIG. 4B.\nTo assess FGF6's role in the regulation of mitochondrial activity, FGF6 was stably expressed in WT-1 brown preadipocytes and 3T3-F442A white preadipocytes. Stable cells were generated by viral infection followed by drug selection.\nFGF2, FGF6 and FGF9 were used at a dosage of 50 ng/mL, 100 ng/mL, 200 ng/mL or 300 ng/mL. FGF21 was used at the dosage of 50 ng/ml and 500 ng/mL. The concentration of BMP7 was 3.3 nM. RNA was isolated and UCP1 and PPARγ expression levels were evaluated by quantitative reverse transcription polymerase chain reaction (Q-RT-PCR) analysis after 24 hours (i.e., 1 day) (FIG. 14A), 2 days (FIG. 14B), 5 days (FIG. 14C) and 7 days (FIG. 14D) of treatment. All experiments were performed triplicate and the data are presented as mean+/−SEM.\nFGF2, FGF6 and FGF9 were used at a dosage of 200 ng/mL. FGF21 was used at a dosage of 500 ng/mL. The concentration of BMP7 was 3.3 nM. mRNA was isolated and UCP1 and PPARγ expression levels were evaluated by quantitative reverse transcription polymerase chain reaction (Q-RT-PCR) analysis after 24 hours (i.e., 1 day), 2 days, 5 days and 7 days of treatment (FIG. 15). […]", "key": {"[1]": {"settings": "0 to 300 ng/ml, absence of induction cocktail, day 7"}}, "note": "“Also recorded” adds a separate entry of the source.", "data": [{"molecule": "FGF6: fibroblast growth factor 6; recombinant human FGF from R&D Systems, or mouse FGF6 cDNA overexpressed by lentiviral vector (protein) KRQRRLYCNVGIGFHLQVLPDGRISGTHEENPYSLLEISTVERGVVSLFGVRSALFVAMNSKGRLYATPSFQEECKFRETLLPNNYNAYESDLYQGTYIALSKYGRVKRGSKVSPIMTVTHFLPRI", "values": [{"measurement": "FGF6 concentration at which UCP1 gene expression plateaued", "setting": "[1]", "value": "about 200 ng/ml"}, {"measurement": "UCP1 gene expression, dose response", "setting": "[1]", "value": "dose-dependent manner"}, {"measurement": "earliest time of significant increase of UCP1 expression", "setting": "200 ng/ml", "value": 4, "unit": "h"}, {"measurement": "fold-induction of UCP1 mRNA over untreated cells", "setting": "200 ng/ml, 24 hours", "value": 700, "unit": "fold"}, {"measurement": "UCP1 levels with prolonged exposure", "setting": "200 ng/ml, time course", "value": "continued to rise"}, {"measurement": "UCP1 expression level", "setting": "50-300 ng/mL with insulin and T3, 1, 2, 5 and 7 days, dose-responsive", "value": "very high levels of UCP1"}, {"measurement": "UCP1 expression level, time course", "setting": "FGF2, FGF6, FGF9 200 ng/mL, FGF21 500 ng/mL, with insulin and T3, 1, 2, 5, 7 days", "value": "very high levels of UCP1"}, {"measurement": "UCP1 mRNA expression", "setting": "WT-1, 24 hours, vs vehicle", "value": "significantly induced"}, {"measurement": "UCP1 mRNA expression", "setting": "WT-1, growth media, seven days, vs control or induction media", "value": "significantly increased; also recorded: extremely high levels"}, {"measurement": "UCP1 expression over basal level", "setting": "constitutive overexpression of FGF6 in WT-1", "value": "greatly increased; also recorded: marked increases"}]}]}
